Test results taken from patent publication US20260265391A1 (BIOTHEUS, published 2026).
Residue numbers refer to the chain shown, from its start.

B1: CP870893-IgG2 (antibody, V domains shown)
VH: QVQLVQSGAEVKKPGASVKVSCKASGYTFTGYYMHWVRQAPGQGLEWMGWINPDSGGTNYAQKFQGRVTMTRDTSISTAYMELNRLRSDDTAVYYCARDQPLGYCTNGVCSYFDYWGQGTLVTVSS
VL: DIQMTQSPSSVSASVGDRVTITCRASQGIYSWLAWYQQKPGKAPNLLIYTASTLQSGVPSRFSGSGSGTDFTLTISSLQPEDFATYYCQQANIFPLTFGGGTKVEIKR
notes: Control antibody; also called CP870893-IgG2-wt; CP-870893-G2-WT
B2: ADI-55168 (antibody, human IgG1, kappa, V domains shown)
VH: EVQLVESGGGLVQPGRSLRLSCAASGFTFDTYAMHWVRQAPGKGLEWVSGISWSSGSIHYADSVKGRFTISRDNAKNSLYLQMNSLRAEDTAVYYCAKDPTATTGARGYFDLWGRGTLVTVSS
VL: B1 VL with R24E, G28V, Y30S, N45K, T50A, T53Y, A91H, N92S, I93S, L96P
B3: ADI-55164 (antibody, human IgG1, kappa, V domains shown)
VH: B2 VH with T31D, G56D
VL: DIQMTQSPSSVSASVGDRVTITCRASKVISSWLAWYQQKPGKAPKLLIYAASYLESGVPSRFSGSGSGTDFTLTISSLQPEDFATYYCQQHSSFPPTFGGGTKVEIKR
B4: ADI-55136 Fab (Fab, V domains shown)
VH: QVQLVESGGGVVQPGRSLRLSCAASGFTFSSYGMHWVRQAPGKGLEWVAVISYHASSKYYADSVKGRFTISRDNSKNTLYLQMNSLRAEDTAVYYCARDTSRGHDIWGQGTMVTVSS
VL: EIVLTQSPGTLSLSPGERATLSCRASQSVSSSYLAWYQQKPGQAPRLLIYGASSRATGIPDRFSGSGSGTDFTLTISRLEPEDFAVYYCQQYADYPPFTFGGGTKVEIK
B5: ADI-55140 Fab (Fab, V domains shown)
VH: B4 VH with S30E, S31K, S52H, H54E, A55G, S57I
VL: B4 VL with S31Y, S32D, S54T, T57N, Q90G, Q91E
B6: ADI-55142 Fab (Fab, V domains shown)
VH: B4 VH with S30E, S31K, H54E, A55G, S56E, S57K
VL: B4 VL with S31Y, T57N, Q90S, Q91D
B7: ADI-55144 Fab (Fab, V domains shown)
VH: B4 VH with S30E, S31K, H54E, A55G, S56T, S57K
VL: B4 VL with S31Y, R55L, A93S
B8: ADI-55145 Fab (Fab, V domains shown)
VH: B4 VH with S30E, S31K, H54E, A55G, S56T
VL: B4 VL with R24Q, S31Y, S32N, A56N, T57N, A93S
B9: ADI-55147 Fab (Fab, V domains shown)
VH: B4 VH with S30G, H54E, A55G, S56V, S57K
VL: B4 VL with S31Y, S32D, S54A, T57N
notes: also called Fab fragment of ADI-55147
B10: ADI-55136 (antibody, human IgG1, kappa, V domains shown)
VH: B4 VH
VL: EIVLTQSPGTLSLSPGERATLSCRASQSVSSSYLAWYQQKPGQAPRLLIYGASSRATGIPDRFSGSGSGTDFTLTISRLEPEDFAVYYCQQYADYPPFTFGGGTKVEIKR
B11: ADI-55140 (antibody, human IgG1, kappa, V domains shown)
VH: B4 VH with S30E, S31K, S52H, H54E, A55G, S57I
VL: B10 VL with S31Y, S32D, S54T, T57N, Q90G, Q91E
B12: ADI-55142 (antibody, human IgG1, kappa, V domains shown)
VH: B4 VH with S30E, S31K, H54E, A55G, S56E, S57K
VL: B10 VL with S31Y, T57N, Q90S, Q91D
B13: ADI-55144 (antibody, human IgG1, kappa, V domains shown)
VH: B4 VH with S30E, S31K, H54E, A55G, S56T, S57K
VL: B10 VL with S31Y, R55L, A93S
B14: ADI-55144-2 (antibody, human IgG1, kappa, V domains shown)
VH: B4 VH with S30E, S31K, H54E, A55G, S56T, S57K, D62E
VL: B10 VL with S31Y, R55L, A93S
B15: ADI-55145 (antibody, human IgG1, kappa, V domains shown)
VH: B4 VH with S30E, S31K, H54E, A55G, S56T
VL: B10 VL with R24Q, S31Y, S32N, A56N, T57N, A93S
B16: ADI-55147 (antibody, human IgG1, kappa, V domains shown)
VH: B4 VH with S30G, H54E, A55G, S56V, S57K
VL: B10 VL with S31Y, S32D, S54A, T57N
B17: ADI-55168 Fab (Fab, V domains shown)
VH: B2 VH
VL: DIQMTQSPSSVSASVGDRVTITCEASQVISSWLAWYQQKPGKAPKLLIYAASYLQSGVPSRFSGSGSGTDFTLTISSLQPEDFATYYCQQHSSFPPTFGGGTKVEIK
B18: ADI-47720 Fab (Fab, V domains shown)
VH: B2 VH with T31D, H59G
VL: B17 VL with E24R, V28G, Y53S, H91R, S92A
B19: ADI-55164 Fab (Fab, V domains shown)
VH: B2 VH with T31D, G56D
VL: B17 VL with E24R, Q27K, Q55E
notes: also called Fab fragment of ADI-55164
B20: ADI-47741 (antibody, human IgG1, kappa, V domains shown)
VH: QVQLQESGPGLVKPSETLSLTCTVSGGSISSYYWSWIRQPPGKGLEWIGSIYYSGSTNYNPSLKSRVTISVDTSKNQFSLKLSSVTAADTAVYYCARDANYYKWHPYWGQGTLVTVSS
VL: EIVLTQSPGTLSLSPGERATLSCRASQSVSSDYLAWYQQKPGQAPRLLIYGASSRATGIPDRFSGSGSGTDFTLTISRLEPEDFAVYYCQQVLSYPPTFGGGTKVEIKR
B21: ADI-47741 Fab (Fab, V domains shown)
VH: B20 VH
VL: EIVLTQSPGTLSLSPGERATLSCRASQSVSSDYLAWYQQKPGQAPRLLIYGASSRATGIPDRFSGSGSGTDFTLTISRLEPEDFAVYYCQQVLSYPPTFGGGTKVEIK

Experiments:
[1] = molecular target: T1, human CD40 overexpressed on cells (human, UniProt P25942 21-277); experiment: cell-based or functional assay
T1 sequence (P25942 21-277 limits assumed): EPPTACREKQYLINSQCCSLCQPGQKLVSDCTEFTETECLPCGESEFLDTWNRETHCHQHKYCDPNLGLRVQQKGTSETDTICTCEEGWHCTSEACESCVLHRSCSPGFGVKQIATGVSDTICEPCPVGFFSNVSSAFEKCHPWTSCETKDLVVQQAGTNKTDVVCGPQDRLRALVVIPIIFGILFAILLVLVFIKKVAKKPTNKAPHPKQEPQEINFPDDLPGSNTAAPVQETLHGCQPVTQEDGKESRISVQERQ

[2] = molecular target: T1, human CD40 overexpressed on cells; experiment: cell-based or functional assay; remark: listed apart in the source
[3] = molecular target: T1, human CD40 overexpressed on cells; experiment: cell-based or functional assay; remark: listed apart in the source
[4] = molecular target: T1, human CD40 overexpressed on cells; experiment: flow cytometry on CHO-S cells overexpressing human CD40
Description: (§1) Specifically, by transfecting the pCHO1.0 vector (Invitrogen) with the human/cynomolgus CD40 cDNA cloned into the MCS and followed by applying pressure selection, CHO-S cells overexpressing human/cynomolgus CD40 were generated. The expanded CD40 overexpressing cells were adjusted to the appropriate cell density and plated on 96-well flow plate. After centrifugation, the cells were incubated with a gradient-diluted sample at 4° C. for 30 minutes. and the cells were then washed twice with PBS, and followed by incubation with a fluorescent secondary antibody diluted to the appropriate concentration, at 4° C. for 30 min. Following two washes with PBS, cells were resuspended in PBS and fluorescent signals were detection on the CytoFlex flow cytometer to calculate the corresponding MFI.

[5] = molecular target: T2, cynomolgus CD40 overexpressed on CHO-S cells (cynomolgus, UniProt G7PG38 21-278); experiment: flow cytometry on CHO-S cells overexpressing cynomolgus CD40
T2 construct: whole, on cells; also called cynomolgus CD40 expressing CHO cells
Description: as §1

human CD40-Fc protein [6] = molecular target: T3, human CD40-Fc protein (human, UniProt P25942 21-193); experiment: BLI (ForteBio), IgG on AHQ sensor, 100 nM CD40-Fc in solution, bivalent, 1:1 model
T3 construct: also called human CD40-Fc fusion protein; CD40-Fc antigen; not shown: Fc part
T3 sequence (P25942 21-193 limits assumed): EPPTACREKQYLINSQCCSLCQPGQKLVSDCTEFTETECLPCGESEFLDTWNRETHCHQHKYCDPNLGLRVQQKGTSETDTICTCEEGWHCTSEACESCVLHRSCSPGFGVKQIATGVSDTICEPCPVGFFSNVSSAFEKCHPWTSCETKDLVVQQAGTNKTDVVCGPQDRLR
Description: (§2) The antibody-loaded sensor was further incubated in a high concentration of irrelevant intact antibody solution for 10 minutes to saturate and block the Fc binding sites on the AHQ sensor. The blocked sensor was then incubated with 100 nM CD40-Fc antigen until a plateau was reached, and then the sensor was transferred to the analysis buffer for at least 2 minutes for dissociation rate measurement. Kinetic analysis was performed using a 1:1 binding model.

[7] = molecular target: T4, cynomolgus CD40-Fc protein (cynomolgus, UniProt G7PG38 21-193); experiment: as above
T4 construct: not shown: Fc part
Description: as §2

[8] = molecular target: T4, cynomolgus CD40-Fc protein; experiment: BLI (ForteBio), CD40-Fc on AHQ sensor, 100 nM Fab in solution, monovalent, 1:1 model
Description: (§3) The antigen-loaded sensor was incubated with 100 nM Fab solution until a plateau was reached, and then the sensor was transferred to the analysis buffer for at least 2 minutes for dissociation rate measurement. Kinetic analysis was performed using a 1:1 binding model.

human CD40-Fc protein [9] = molecular target: T3, human CD40-Fc protein; experiment: as above
Description: as §3

Row | Binder | EC50 [4] [nM] | EC50 [5] [nM] | Kd (human CD40-Fc protein [6]) [nM] | Kd [7] [nM] | Kd [8] [nM] | Kd (human CD40-Fc protein [9]) [nM] | other results
1 | B1 | 8 | 7.28 | – | – | – | – | Signal amplification with bead crosslinking (NFkB-Luc2P reporter, U2OS cells overexpressing human CD40) [1]: 14.8; Signal amplification without bead crosslinking (NFkB-Luc2P reporter, U2OS cells overexpressing human CD40) [1]: 4.7; EC50 of the CD40-NFkB reporter gene assay (without beads cross-linking) [2]: 131 nM; EC50 of the CD40-NFkB reporter gene assay (with beads cross-linking) [3]: 181 nM
2 | B2 | 4.73 | 8.85 | 0.111 | 0.122 | – | – | –
3 | B3 | 5.47 | 8.06 | 0.1 | 0.117 | – | – | –
4 | B4 | – | – | – | – | 78.1 | – | –
5 | B5 | – | – | – | – | 5.42 | 5.77 | –
6 | B6 | – | – | – | – | 2.81 | 2.74 | –
7 | B7 | – | – | – | – | 2.21 | 2.08 | –
8 | B8 | – | – | – | – | 5.72 | 5.88 | –
9 | B9 | – | – | – | – | 8.87 | 8.67 | –
10 | B10 | – | 4.83 | – | 0.383 | – | – | –
11 | B11 | 6.3 | 8.53 | 0.168 | 0.23 | – | – | –
12 | B12 | 7.69 | 6.32 | 0.146 | 0.193 | – | – | –
13 | B13 | – | – | 0.11 | 0.19 | – | – | –
14 | B14 | 11.5 | 15 | – | – | – | – | –
15 | B15 | 5.26 | 6.66 | 0.169 | 0.226 | – | – | –
16 | B16 | 7.49 | 4.49 | 0.139 | 0.208 | – | – | –
17 | B17 | – | – | – | – | 0.586 | 0.988 | –
18 | B18 | – | – | – | – | 263 | 152 | –
19 | B19 | – | – | – | – | 0.72 | 0.663 | –
20 | B20 | – | 17.9 | – | 0.559 | – | – | –
21 | B21 | – | – | – | – | 71 | – | –
